# Test results from paper PMC11187062.
# B1: human DPPA3, residues 81–118 (recombinant) [human] / human UHRF1 PHD finger, residues 299–366 [human] (parent)
# chain 1: SRRGVRTLLSVQREKMARLRYMLLGGVRTHERRPTNKE
# chain 2: GPSCKHCKDDVNRLCRVCACHLCGGRQDPDKQLMCDECDMAFHIYCLDPPLSSVPSEDEWYCPECRND
# Variants of: B1
# Test: ITC
# Conditions: with human UHRF1 PHD finger
row,Kd [µM],Variant
1,1.61,chain 1 SRRGARTLLSVQREKMARLRYMLLGGVRTHERRPTNKE [chain 1 V5A]
